The values that follow come from patent US20220281936A1.

This assay addresses IL12 receptor on pre-activated mouse CD8+ T cells (mouse) (UniProt Q60837). The experiment in a line: cell-based or functional assay.

B1: Mouse IL12 (unmodified) (ligand)
chain 1: RVIPVSGPARCLSQSRNLLKTTDDMVKTAREKLKHYSCTAEDIDHEDITRDQTSTLKTCLPLELHKNESCLATRETSSTTRGSCLPPQKTSLMMTLCLGSIYEDLKMYQTEFQAINAALQNHNHQQIILDKGMLVAIDELMQSLNHNGETLRQKPPVGEADPYRVKMKLCILLHAFSTRVVTINRVMGYLSSA
chain 2: MWELEKDVYVVEVDWTPDAPGETVNLTCDTPEEDDITWTSDQRHGVIGSGKTLTITVKEFLDAGQYTCHKGGETLSHSHLLLHKKENGIWSTEILKNFKNKTFLKCEAPNYSGRFTCSWLVQRNMDLKFNIKSSSSSPDSRAVTCGMASLSAEKVTLDQRDYEKYSVSCQEDVTCPTAEETLPIELALEARQQNKYENYSTSFFIRDIIKPDPPKNLQMKPLKNSQVEVSWEYPDSWSTPHSYFSLKFFVRIQRKKEKMKETEEGCNQKGAFLVEKTSTEVQCKGGNVCVQAQDRYYNSSCSKWACVPCRVRS
In turn, B1 showed an EC50 of STAT4 phosphorylation in pre-activated mouse CD8+ T cells (flow cytometry) of 0.0163 nM.

B2: IL12Rβ1-VP-IL12 (protein, part only; not given: IL12Rβ1 mask domains and linker, part only)
chain, part: VPLSLYSRVIPVSGPARCLSQSRNLLKTTDDMVKTAREKLKHYSCTAEDIDHEDITRDQTSTLKTCLPLELHKNESCLATRETSSTTRGSCLPPQKTSLMMTLCLGSIYEDLKMYQTEFQAINAALQNHNHQQIILDKGMLVAIDELMQSLNHNGETLRQKPPVGEADPYRVKMKLCILLHAFSTRVVTINRVMGYLSSA
chain: MWELEKDVYVVEVDWTPDAPGETVNLTCDTPEEDDITWTSDQRHGVIGSGKTLTITVKEFLDAGQYTCHKGGETLSHSHLLLHKKENGIWSTEILKNFKNKTFLKCEAPNYSGRFTCSWLVQRNMDLKFNIKSSSSSPDSRAVTCGMASLSAEKVTLDQRDYEKYSVSCQEDVTCPTAEETLPIELALEARQQNKYENYSTSFFIRDIIKPDPPKNLQMKPLKNSQVEVSWEYPDSWSTPHSYFSLKFFVRIQRKKEKMKETEEGCNQKGAFLVEKTSTEVQCKGGNVCVQAQDRYYNSSCSKWACVPCRVRS
Regarding B2, the EC50 of STAT4 phosphorylation in pre-activated mouse CD8+ T cells, fold against unmodified IL12 came out at 80 fold and the fold decrease in STAT4 phosphorylation in pre-activated mouse CD8+ T cells, noncleaved construct against IL12 (FIG. 3C) was determined as 80 fold.

B3: IL12Rβ1-LS-IL12 (protein)
chain 1: QLGASGPGDGCCVEKTSFPEGASGSPLGPRNLSCYRVSKTDYECSWQYDGPEDNVSHVLWCCFVPPNHTHTGQERCRYFSSGPDRTVQFWEQDGIPVLSKVNFWVESRLGNRTMKSQKISQYLYNWTKTTPPLGHIKVSQSHRQLRMDWNVSEEAGAEVQFRRRMPTTNWTLGDCGPQVNSGSGVLGDIRGSMSESCLCPSENMAQEIQIRRRRRLSSGAPGGPWSDWSMPVCVPPEVLPQAGLLSGRSDNHGGGSGGGSRVIPVSGPARCLSQSRNLLKTTDDMVKTAREKLKHYSCTAEDIDHEDITRDQTSTLKTCLPLELHKNESCLATRETSSTTRGSCLPPQKTSLMMTLCLGSIYEDLKMYQTEFQAINAALQNHNHQQIILDKGMLVAIDELMQSLNHNGETLRQKPPVGEADPYRVKMKLCILLHAFSTRVVTINRVMGYLSSAHHHHHH
chain 2: MWELEKDVYVVEVDWTPDAPGETVNLTCDTPEEDDITWTSDQRHGVIGSGKTLTITVKEFLDAGQYTCHKGGETLSHSHLLLHKKENGIWSTEILKNFKNKTFLKCEAPNYSGRFTCSWLVQRNMDLKFNIKSSSSSPDSRAVTCGMASLSAEKVTLDQRDYEKYSVSCQEDVTCPTAEETLPIELALEARQQNKYENYSTSFFIRDIIKPDPPKNLQMKPLKNSQVEVSWEYPDSWSTPHSYFSLKFFVRIQRKKEKMKETEEGCNQKGAFLVEKTSTEVQCKGGNVCVQAQDRYYNSSCSKWACVPCRVRS
B3: the EC50 of STAT4 phosphorylation in pre-activated mouse CD8+ T cells, fold against unmodified IL12 worked out at 80 fold and the fold decrease in STAT4 phosphorylation in pre-activated mouse CD8+ T cells, noncleaved construct against IL12 (FIG. 3C) came to 80 fold.
